Results: patent US20220332804A1 (CSL INNOVATION, published 2022)

Columns and labels:
Experiment in all cases: SPR, antibody captured, C2 as analyte;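 further: biacore SPR at 37 °C, anti-C2 mAbs captured via goat anti-human IgG on CM5 chips, double-referenced sensorgrams fit to a 1:1 kinetic or steady-state model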
human C2 N268A = target: T1, human C2 N268A (human, UniProt P06681 21-752)
T1 sequence: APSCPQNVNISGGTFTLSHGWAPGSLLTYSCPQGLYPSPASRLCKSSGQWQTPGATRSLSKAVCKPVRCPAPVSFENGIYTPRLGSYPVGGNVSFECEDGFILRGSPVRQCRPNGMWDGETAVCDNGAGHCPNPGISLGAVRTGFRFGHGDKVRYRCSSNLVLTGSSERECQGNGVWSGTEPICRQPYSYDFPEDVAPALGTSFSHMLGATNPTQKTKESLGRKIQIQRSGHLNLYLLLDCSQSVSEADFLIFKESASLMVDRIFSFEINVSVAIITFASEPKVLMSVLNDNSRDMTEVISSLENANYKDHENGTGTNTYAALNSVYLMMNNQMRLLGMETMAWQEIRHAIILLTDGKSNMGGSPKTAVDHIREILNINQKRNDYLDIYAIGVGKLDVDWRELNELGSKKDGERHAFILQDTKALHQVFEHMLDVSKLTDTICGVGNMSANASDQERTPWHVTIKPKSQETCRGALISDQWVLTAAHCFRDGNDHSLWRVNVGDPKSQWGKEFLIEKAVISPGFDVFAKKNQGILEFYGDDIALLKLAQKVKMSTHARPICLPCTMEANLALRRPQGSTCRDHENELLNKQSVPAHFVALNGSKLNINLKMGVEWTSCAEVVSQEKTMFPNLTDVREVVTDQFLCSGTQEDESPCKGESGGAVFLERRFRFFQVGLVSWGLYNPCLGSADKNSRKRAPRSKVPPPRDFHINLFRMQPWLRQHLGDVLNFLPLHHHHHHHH

human C2 N424A = target: T2, human C2 N424A (human, UniProt P06681 21-752)
T2 sequence: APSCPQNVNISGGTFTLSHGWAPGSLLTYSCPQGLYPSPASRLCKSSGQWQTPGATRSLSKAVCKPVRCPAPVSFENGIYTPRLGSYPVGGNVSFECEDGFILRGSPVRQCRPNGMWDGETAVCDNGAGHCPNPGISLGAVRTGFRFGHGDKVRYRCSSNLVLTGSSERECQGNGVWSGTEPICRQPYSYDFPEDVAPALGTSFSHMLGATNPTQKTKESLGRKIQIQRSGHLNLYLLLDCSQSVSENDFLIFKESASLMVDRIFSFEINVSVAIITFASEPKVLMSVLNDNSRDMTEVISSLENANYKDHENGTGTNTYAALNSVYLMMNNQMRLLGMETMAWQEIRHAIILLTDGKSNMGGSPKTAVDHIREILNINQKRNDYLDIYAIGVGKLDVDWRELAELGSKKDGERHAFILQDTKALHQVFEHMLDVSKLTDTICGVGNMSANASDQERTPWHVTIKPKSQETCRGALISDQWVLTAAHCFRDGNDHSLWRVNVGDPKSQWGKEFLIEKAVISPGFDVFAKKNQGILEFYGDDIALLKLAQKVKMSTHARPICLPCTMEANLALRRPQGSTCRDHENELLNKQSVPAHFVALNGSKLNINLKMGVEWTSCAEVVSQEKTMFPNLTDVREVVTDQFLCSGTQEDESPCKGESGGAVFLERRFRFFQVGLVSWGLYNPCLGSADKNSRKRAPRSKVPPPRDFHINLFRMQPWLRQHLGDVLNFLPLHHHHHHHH

human C2 L453A = target: T3, human C2 L453A (human, UniProt P06681 21-752)
T3 sequence: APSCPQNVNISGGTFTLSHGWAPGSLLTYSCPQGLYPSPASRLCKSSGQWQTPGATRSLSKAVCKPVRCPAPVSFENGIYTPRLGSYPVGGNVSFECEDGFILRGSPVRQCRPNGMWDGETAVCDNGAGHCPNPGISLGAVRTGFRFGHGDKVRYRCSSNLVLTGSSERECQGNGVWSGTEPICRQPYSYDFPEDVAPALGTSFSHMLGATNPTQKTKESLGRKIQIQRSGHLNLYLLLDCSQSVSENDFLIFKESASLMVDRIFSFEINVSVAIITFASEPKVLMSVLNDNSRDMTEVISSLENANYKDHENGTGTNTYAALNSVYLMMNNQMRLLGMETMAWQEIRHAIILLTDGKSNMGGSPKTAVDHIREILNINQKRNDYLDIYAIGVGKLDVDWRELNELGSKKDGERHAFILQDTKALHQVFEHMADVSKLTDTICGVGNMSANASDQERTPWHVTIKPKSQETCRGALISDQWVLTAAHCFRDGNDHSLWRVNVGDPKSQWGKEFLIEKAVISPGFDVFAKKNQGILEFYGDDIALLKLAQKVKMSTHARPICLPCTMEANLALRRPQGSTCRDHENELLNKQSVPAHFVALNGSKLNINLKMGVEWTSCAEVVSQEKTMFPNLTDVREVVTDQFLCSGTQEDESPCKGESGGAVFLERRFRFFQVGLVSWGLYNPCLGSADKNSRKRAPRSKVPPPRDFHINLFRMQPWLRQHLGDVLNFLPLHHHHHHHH

human C2 G530A = target: T4, human C2 G530A (human, UniProt P06681 21-752)
T4 sequence: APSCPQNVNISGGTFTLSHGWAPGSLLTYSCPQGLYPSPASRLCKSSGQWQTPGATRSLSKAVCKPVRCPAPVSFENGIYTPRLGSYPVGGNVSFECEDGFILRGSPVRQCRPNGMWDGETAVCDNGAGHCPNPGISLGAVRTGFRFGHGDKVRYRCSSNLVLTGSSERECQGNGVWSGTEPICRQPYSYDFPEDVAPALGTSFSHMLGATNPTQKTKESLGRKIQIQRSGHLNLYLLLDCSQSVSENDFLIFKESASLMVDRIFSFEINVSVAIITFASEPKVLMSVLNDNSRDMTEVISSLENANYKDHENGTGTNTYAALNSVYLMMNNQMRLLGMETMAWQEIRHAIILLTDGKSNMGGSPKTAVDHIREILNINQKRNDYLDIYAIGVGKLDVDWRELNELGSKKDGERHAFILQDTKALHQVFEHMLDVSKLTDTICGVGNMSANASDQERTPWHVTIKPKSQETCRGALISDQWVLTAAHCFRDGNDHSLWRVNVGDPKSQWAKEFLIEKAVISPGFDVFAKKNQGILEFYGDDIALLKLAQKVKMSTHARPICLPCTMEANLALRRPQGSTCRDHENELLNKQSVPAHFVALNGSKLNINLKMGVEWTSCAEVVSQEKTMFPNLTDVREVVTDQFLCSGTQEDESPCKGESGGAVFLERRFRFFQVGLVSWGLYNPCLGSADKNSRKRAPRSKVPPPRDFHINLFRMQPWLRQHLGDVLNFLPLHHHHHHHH

B1: RF16-226 (antibody, human IgG4 S228P, lambda)
heavy: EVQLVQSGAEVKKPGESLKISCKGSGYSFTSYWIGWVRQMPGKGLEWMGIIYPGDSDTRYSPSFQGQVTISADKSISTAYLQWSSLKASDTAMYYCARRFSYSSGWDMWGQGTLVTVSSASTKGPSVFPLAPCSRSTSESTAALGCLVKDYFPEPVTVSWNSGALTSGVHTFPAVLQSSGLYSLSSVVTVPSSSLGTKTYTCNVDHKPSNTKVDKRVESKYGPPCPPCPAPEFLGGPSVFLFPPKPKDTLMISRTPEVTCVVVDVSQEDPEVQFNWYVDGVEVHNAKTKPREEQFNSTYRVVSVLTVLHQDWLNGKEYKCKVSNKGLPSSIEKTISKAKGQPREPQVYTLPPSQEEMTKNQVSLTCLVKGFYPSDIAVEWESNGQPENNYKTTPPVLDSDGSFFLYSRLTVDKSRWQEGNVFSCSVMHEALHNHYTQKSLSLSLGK
light: SYELTQPPSVSVSPGQTARITCSGDALTSKYVAWYQQKSGLAPLLVIYEDTRRPSGIPAKFSGSSSGSVATLTISGAHGDDEADYYCYSTDASGHQRVFGGGTKLTVLSQPKAAPSVTLFPPSSEELQANKATLVCLISDFYPGAVTVAWKADGSPVKAGVETTKPSKQSNNKYAASSYLSLTPEQWKSHRSYSCQVTHEGSTVEKTVAPTECS
notes: pH-dependent anti-C2 antibody from a phage display library; also called WT
B1 was tested, and the Kd (human C2 N268A) was 11.8 nM, the Kd (human C2 N424A) was 3.2 nM and the Kd (human C2 L453A) was 29.9 nM. The Kd (human C2 G530A) was 16.7 nM.
